Article doi:10.1101/2023.02.03.527063 (bioRxiv, 2023)

Target: T1, FLAG-tagged PXR K109A (human, UniProt O75469 1-434, K109A)
T1 sequence (looked up): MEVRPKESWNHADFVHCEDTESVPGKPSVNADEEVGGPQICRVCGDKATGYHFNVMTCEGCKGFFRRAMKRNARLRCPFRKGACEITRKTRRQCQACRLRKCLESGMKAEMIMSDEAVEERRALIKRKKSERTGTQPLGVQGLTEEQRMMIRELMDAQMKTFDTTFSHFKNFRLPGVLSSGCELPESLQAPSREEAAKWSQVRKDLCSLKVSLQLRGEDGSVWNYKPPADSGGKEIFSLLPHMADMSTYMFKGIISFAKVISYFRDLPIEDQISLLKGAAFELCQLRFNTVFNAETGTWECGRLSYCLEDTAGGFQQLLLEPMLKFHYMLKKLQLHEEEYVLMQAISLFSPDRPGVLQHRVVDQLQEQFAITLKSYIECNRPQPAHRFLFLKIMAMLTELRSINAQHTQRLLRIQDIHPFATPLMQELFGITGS
Test: co-IP

interaction relative to that between FLAG-PXR and BRD9-His: 0.3 fold
B1: His-tagged BRD9 (natural protein, UniProt Q9H8M2 1-597, looked up)
chain: MGKKHKKHKAEWRSSYEDYADKPLEKPLKLVLKVGGSEVTELSGSGHDSSYYDDRSDHERERHKEKKKKKKKKSEKEKHLDDEERRKRKEEKKRKREREHCDTEGEADDFDPGKKVEVEPPPDRPVRACRTQPAENESTPIQQLLEHFLRQLQRKDPHGFFAFPVTDAIAPGYSMIIKHPMDFGTMKDKIVANEYKSVTEFKADFKLMCDNAMTYNRPDTVYYKLAKKILHAGFKMMSKQAALLGNEDTAVEEPVPEVVPVQVETAKKSKKPSREVISCMFEPEGNACSLTDSTAEEHVLALVEHAADEARDRINRFLPGGKMGYLKRNGDGSLLYSVVNTAEPDADEEETHPVDLSSLSSKLLPGFTTLGFKDERRNKVTFLSSATTALSMQNNSVFGDLKSDEMELLYSAYGDETGVQCALSLQEFVKDAGSYSKKVVDDLLDQITGGDHSRTLFQLKQRRNVPMKPPDEAKVGDTLGDSSSSVLEFMSMKSYPDVSVDISMLSSLGKVKKELDPDDSHLNLDETTKLLQDLHEAQAERGGSRPSSNLSSLSNASERDQHHLGSPSRLSVGEQPDVTHDPYEFLQSPEPAASAKT
